The supplement of paper PMC12042874
± gives the uncertainty stated by the source.

Experiment: amyloid nucleation score (Sup35N fusion, yeast selection) (log enrichment); library NNK3; higher = more nucleation; inactive = no reads after selection
Outline: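 Random libraries were run with three technical output replicates. In each, psi-negative yeast expressing Sup35N fused to peptides of 20 random codons were induced 24 hours with 100 μM copper sulfate and grown 7 days at 30°C on medium lacking adenine and uracil, and input and output plasmid inserts were Illumina-sequenced. The nucleation score is the DiMSum log enrichment of output over input reads, centred on the mode score of non-aggregating sequences, and sequences under 100 input reads were excluded.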

Substance	amyloid nucleation score
QMQTATRHFNLG	inactive
NTWPTPSLWLVLNKTLRKTS	inactive
SVGVFVYLKLINLIVLGGRG	inactive
LYELGQKFLVGHWQRGLKP	inactive
RARLMITYYLTDQASDNRYV	0.799 ± 0.28
RGYSFCRPSHWWKARCVEGE	inactive
IYGLLVDRRAVIFFEYMHLV	inactive
LLSFENNSQLVYVCIDNTLE	inactive
CWFKLMLASMIKENTLSTYG	inactive
FDGFGMDNIWKTFRNPHLMG	inactive
SCKVVPCYHVDDMVEL	inactive
SFIVETVDQDVLG	inactive
VYRWVC	inactive
TTRRVGCLMGFLVDFRIKSC	inactive
VWNFPNILCFGWIFRA	1.64 ± 0.093
TSVGYNRIMFQERNIHPELN	inactive
LAEGYVSVIRIYKRGWNEDV	inactive
HMLYLNLFGIIGIIFCDWNM	inactive
GNEIGITGVYGLHRSAKVVV	inactive
NNSAM	-0.178 ± 1.1
YSVAHQIPDDDRQGE	inactive
NYYINKSMVRSRWFCCLPLW	2.34 ± 0.067
SKLYYHNQLCFILMHTA	inactive

Substance	amyloid nucleation score
SEMLFIDQLCSSSVSKYTVI	inactive
RFWCLVVCTRLVHMENGRCS	inactive
NESISPFVTKRHPEFMRFNC	inactive
NVIRGGQGLVGPAIMFRDGV	inactive
FNERDWCNSSGSSHVLWSSM	inactive
DPVMTACNALMTSVS	-0.319 ± 1.3
LDVSLVVVMPIGLRTEWMSG	inactive
MFFQLVCYFNLSTVMTSYFE	0.593 ± 0.14
TMNLCS	inactive
QQEKLCLKHTSQVDI	inactive
DPLILPIVVDRIVADDCYCQ	inactive
RVRNDYLPDRHWFSKHRGTK	inactive
HYFSYIINTAMMRKAYILSG	0.543 ± 0.14
GVNCLSLGSKIICGSTGWFL	2.47 ± 0.087
TNLVAIKYLFT	-0.022 ± 0.48
SVSGRPGEMFSRYYWIYGMY	inactive
INVVSEFGFGLQSTFRSDLV	inactive
DSFNCDFNMCHDYVM	inactive
SWVRTGFL	inactive
VCITRMQVRLPTYLRVQSKA	inactive
SINSLFAESGLMLTFRMSSE	inactive
LYCCTGEHGSLASVCSSTLT	-0.852 ± 1.5
GKFNTCA	inactive

Substance	amyloid nucleation score
DFSFSIRVGSSALGVSKNTE	1.31 ± 0.093
GSLCFGLDSSPSTKIYLYDS	inactive
VWFLLPRGLRCV	inactive
YDMVLRSHATVAYSHYGFDM	inactive
KYWICVFFVMIRDPIAYWDD	inactive
SGHSAFGKKGLRGM	inactive
YCSVFRES	0.014 ± 0.63
IKFIPYYCYPCRLIRLRVKC	inactive
TELFALGYRSFCARTCATHD	inactive
RDCTMYNTYFIWNIYPG	3.42 ± 0.07
FCVIMSM	inactive
SIPPRMRCFLGCFWSISWDA	inactive
YFMVINR	1.98 ± 0.071
WTRMCSSVRTVR	inactive
RNGVHS	0.149 ± 0.81
PLKTLFCSVLSCVIFLYLLM	inactive
GPLHMANYGYVLNIYLSCRN	2.15 ± 0.06
RRMAETKHGAPMQRVLK	inactive
FNLFRNLIMGNCSALMMDQP	inactive
IFMLWPAD	inactive
LFRGRCAPLFSQSVA	inactive
GFGDRMDNPSVVSK	inactive
WSDHMMRALERLPECINKLL	inactive

Substance	amyloid nucleation score
LDPEP	inactive
TRCTGSYNNYG	inactive
EYNPTYYFYRTFMAFFLKMI	inactive
QDYGYFNTYQFVRKWSSISL	inactive
PMHAIIKLYM	inactive
PRLSAFVLRNYLRPKGYGGA	inactive
ALFSLSWLNQRDSIWVKSDQ	inactive
IPVQFFVQIRSGIVHFWHER	1.81 ± 0.11
LTSGVNRISQQPWLSLVDIG	inactive
IAAQSRRVGRCDIASLQLLE	inactive
SNYICTYIQKFSIVYCIPSH	1.96 ± 0.08
SGKSFNVTGLPCMAWCRATD	inactive
FNGSTCCVSSV	inactive
IMSRMYDDSFADLVCKHAVD	inactive
RKEVEGGVPALYDDMRIFES	inactive
SIPWLIVINTSHLLVIFNAI	inactive
RFYGYTLY	inactive
TCVWRHAWQSGAHRVVRLAW	inactive
LNSFQHGY	inactive
MGPSVMFCIDLSSWKHLIRL	0.87 ± 0.16
LVSKAGLSLRLKG	inactive
VSVLYYLKY	0.132 ± 0.28
YMGYWFKFFTFSGDQVTIGR	0.718 ± 0.14

Substance	amyloid nucleation score
PYQDIMNSQESGGDE	inactive
KWSNQGRCEHSVNMFHREWR	1.64 ± 0.09
MRSWRMRGSERFAHSLRGYL	inactive
LYNRKHFTSM	-0.638 ± 0.96
YDTAVYIIELGCNDNKSWVR	inactive
CRLRGKLIYLLIMDGTKE	inactive
AVVPAFDLLWRNRLITSMTS	inactive
SRIFSGISPDVTDPS	inactive
AAPMS	inactive
WSLNWLMTFGLIYRQFSHLY	inactive
FKFVQDAHQNLGVIRSYRRS	inactive
DMWYRYYMSLGSCKRGSVWK	inactive
VVRYDEGVVLNSRFLLSPGW	inactive
ILTKRTAAFDPLGLKNWERC	-0.398 ± 1.7
RLLSAV	inactive
TMCHGDDLRNHCYSETNSFR	inactive
LNLVRNWTISAAGKVALKWS	inactive
PDKWSPGAYVKWWVGTKVQM	inactive
FFLYAVLLFTLLPSVLASGN	inactive
LYSECNDPNKA	inactive
DIWYRIKMFSIWKFMSHTTG	inactive
RKTSV	-0.071 ± 0.28
WQVTCDFTFNLRFLFGFGDC	0.617 ± 0.2

Substance	amyloid nucleation score
STRRILCIP	-0.381 ± 0.8
FTRAAREGFFDLY	-0.04 ± 0.66
LFLISG	inactive
AEMDRRATFTGDHGDGFAIV	inactive
PSFGDEDTYNRDLALTLMDC	inactive
VWVTFMRAVMTLELCLERMR	inactive
SMLGHKIN	inactive
LSGLRNAVERVVAGFIHGRV	inactive
YMCGSGCF	inactive
LVWYKSDLISIVRHTVDSCC	inactive
LIVLVMHKLYKLWSGRLRVV	inactive
KRSNISV	inactive
IEINCCSNFIGVCVDNLNL	2.57 ± 0.055
FISLVPLLSLYRPWVKK	0.836 ± 0.18
GIYFDSGLRGWHSLNHRCRR	0.132 ± 0.59
RAALLGVSADFTKHTTRVWE	inactive
RRMRFCKTSYEYLCNYAAPK	inactive
LNYFISLSGRSLPVSCNQIY	inactive
FVHHYIWRVNL	0.712 ± 0.36
MTYCRVFRNRASDKPYMMRL	inactive
NSHLSKNGQWIPLSAPATTT	inactive
CVLNW	inactive
DNFVEDFLTMASGNIRC	inactive

Substance	amyloid nucleation score
PGSYGHGGWNTEFGCQVAIW	-0.593 ± 1.9
YYLNKVVSIVNRLFVAFAPC	inactive
GDIRLGVAFRIFLSNCWGYF	inactive
PPCWLYDFVTNVNNWWYEHC	inactive
VRRHAF	inactive
SSNESGLSFGSEFHMLGWHG	0.075 ± 0.35
SEIVSKVITLQGNICFFGMG	inactive
VFNRSSAT	inactive
FGVFGEIDIYCGW	inactive
TRISMSENKVVKREVVATRR	inactive
FLPDKGYTWKGTLWRWESNN	inactive
GFHELRLH	inactive
ASIPGQRYSEPVKPGTCMYV	1.3 ± 0.14
DCNSVFVLRVFNSVLFGIKD	inactive
HYLAIYGVGCCNFYSYTAVC	1.28 ± 0.085
VNLYGSRL	inactive
KNPTILAFSLGVRGETNRCV	inactive
RYTVSGTLSAYF	-0.112 ± 0.37
CRLELPMGSTTDDDRGQKVD	-0.014 ± 0.53
LFVMSLFGHLGLQIYRCLAL	inactive
VTFKDMDTHGWVHLSIHVAE	inactive
